The values that follow come from article PMC10786891, “Massively parallel profiling of RNA-targeting CRISPR-Cas13d”.

Changes are numbered by the printed parent chain. Names may count otherwise.

The labels stand for the following.
T1: EsCas13d, nuclease-dead (Eubacterium siraeum, UniProt B0MS50, R295A;H300A;R849A;H854A)
T1 sequence: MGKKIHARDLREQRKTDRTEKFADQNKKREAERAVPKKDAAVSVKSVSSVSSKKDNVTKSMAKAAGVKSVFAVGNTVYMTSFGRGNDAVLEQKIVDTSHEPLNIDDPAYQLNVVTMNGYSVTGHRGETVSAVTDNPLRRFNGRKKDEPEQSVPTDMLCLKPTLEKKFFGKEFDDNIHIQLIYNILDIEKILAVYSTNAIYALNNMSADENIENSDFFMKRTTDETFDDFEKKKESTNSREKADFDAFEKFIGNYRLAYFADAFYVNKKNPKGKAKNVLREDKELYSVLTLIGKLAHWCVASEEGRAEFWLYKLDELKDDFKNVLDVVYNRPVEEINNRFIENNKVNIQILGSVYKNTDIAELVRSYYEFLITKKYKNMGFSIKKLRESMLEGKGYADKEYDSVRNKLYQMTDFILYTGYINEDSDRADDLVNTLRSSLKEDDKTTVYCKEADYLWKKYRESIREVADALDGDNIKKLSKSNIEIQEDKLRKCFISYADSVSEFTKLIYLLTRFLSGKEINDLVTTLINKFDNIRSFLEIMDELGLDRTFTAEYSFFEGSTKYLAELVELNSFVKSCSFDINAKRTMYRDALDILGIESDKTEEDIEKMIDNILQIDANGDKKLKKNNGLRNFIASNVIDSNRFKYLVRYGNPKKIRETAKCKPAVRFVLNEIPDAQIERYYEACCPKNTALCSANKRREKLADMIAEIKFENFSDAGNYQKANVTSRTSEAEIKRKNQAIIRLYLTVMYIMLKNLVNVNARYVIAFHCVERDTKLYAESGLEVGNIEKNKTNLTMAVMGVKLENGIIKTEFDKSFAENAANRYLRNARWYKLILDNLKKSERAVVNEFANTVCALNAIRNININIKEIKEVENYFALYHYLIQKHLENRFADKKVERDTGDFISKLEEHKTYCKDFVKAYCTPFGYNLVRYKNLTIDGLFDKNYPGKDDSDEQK

B1: target 1 A1G,G15A (mixed)
RNA 1: CACCCGUGCAAAAAUGCAGGGGUCUAAAACUGAGCGGAUAACCUCUCUAUGG
RNA 2: GGGAAUGGAUCCACAUCUACGAAUUCGUACCAUAGAAAGGUUAUCCGCUCGCCGAGAUCGGAAGAGCACACGU
B2: target 1 A1U,C2U (mixed)
RNA 1: B1 RNA 1
RNA 2: B1 RNA 2 with A37G, C50U, G51U
B3: target 1 C4A,A16C (mixed)
RNA 1: B1 RNA 1
RNA 2: B1 RNA 2 with A36C, A37G, C48A, G51A
B4: target 1 insA 3' of 19,insU 3' of 17 (mixed)
RNA 1: B1 RNA 1
RNA 2: GGGAAUGGAUCCACAUCUACGAAUUCGUACCAUAAGUAGAGGUUAUCCGCUCACCGAGAUCGGAAGAGCACACGU
B5: target 1 G17A,U19A (mixed)
RNA 1: B1 RNA 1
RNA 2: B1 RNA 2 with U33A, G35A, A37G, G51A
B6: target 1 insC 3' of 9,insA 3' of 8 (mixed)
RNA 1: B1 RNA 1
RNA 2: GGGAAUGGAUCCACAUCUACGAAUUCGUACCAUAGAGAGGUUACUACCGCUCACCGAGAUCGGAAGAGCACACGU
B7: target 1 C2U,C21U (mixed)
RNA 1: B1 RNA 1
RNA 2: B1 RNA 2 with C31U, A37G, C50U, G51A
B8: target 1 insC 3' of 22,insA 3' of 8 (mixed)
RNA 1: B1 RNA 1
RNA 2: GGGAAUGGAUCCACAUCUACGAAUUCGUACCCAUAGAGAGGUUAUACCGCUCACCGAGAUCGGAAGAGCACACGU
B9: target 1 insC 3' of 5,insU 3' of 5 (mixed)
RNA 1: B1 RNA 1
RNA 2: B6 RNA 2 with C44U, U45C, A46C, C47G, G49U
B10: target 1 insU 3' of 17,insG 3' of 16 (mixed)
RNA 1: B1 RNA 1
RNA 2: B4 RNA 2 with A35G, G36U, U37A, A38G
B11: target 1 U8C,A9C (mixed)
RNA 1: B1 RNA 1
RNA 2: B1 RNA 2 with A37G, A43C, U44C, G51A
B12: target 1 insU 3' of 9,insG 3' of 2 (mixed)
RNA 1: B1 RNA 1
RNA 2: B6 RNA 2 with C44U, A46C, C48G, G49C, C50U, U51C, C52G
B13: target 1 C2U,U11A (mixed)
RNA 1: B1 RNA 1
RNA 2: B1 RNA 2 with A37G, U41A, C50U, G51A
B14: target 1 C6U,U8A (mixed)
RNA 1: B1 RNA 1
RNA 2: B1 RNA 2 with A37G, U44A, C46U, G51A
B15: target 1 G17C,C22U (mixed)
RNA 1: B1 RNA 1
RNA 2: B1 RNA 2 with C30U, G35C, A37G, G51A
B16: target 1 insA 3' of 21,insU 3' of 4 (mixed)
RNA 1: B1 RNA 1
RNA 2: B8 RNA 2 with C32A, A46C, C48G, G49C, C50U
B17: target 1 insC 3' of 10,insA 3' of 6 (mixed)
RNA 1: B1 RNA 1
RNA 2: B6 RNA 2 with A43C, C44A, A46C, C48A
B18: target 1 insC 3' of 13,insC 3' of 13 (mixed)
RNA 1: B1 RNA 1
RNA 2: B4 RNA 2 with A35G, G36A, U37G, A40C, G41C
B19: target 1 A1U,G15A (mixed)
RNA 1: B1 RNA 1
RNA 2: B1 RNA 2 with G51U
B20: target 1 U8G,U11A (mixed)
RNA 1: B1 RNA 1
RNA 2: B1 RNA 2 with A37G, U41A, U44G, G51A
B21: target 1 U11G,G12A (mixed)
RNA 1: B1 RNA 1
RNA 2: B1 RNA 2 with A37G, G40A, U41G, G51A
B22: target 1 insG 3' of 16,insC 3' of 8 (mixed)
RNA 1: B1 RNA 1
RNA 2: B6 RNA 2 with A38G, G39A, U41G, A43U, C44A, A46C
B23: target 1 A1G,C2U (mixed)
RNA 1: B1 RNA 1
RNA 2: B1 RNA 2 with A37G, C50U
B24: target 1 C2U (mixed)
RNA 1: B1 RNA 1
RNA 2: B1 RNA 2 with A37G, C50U, G51A
B25: target 1 A1U,A20U (mixed)
RNA 1: B1 RNA 1
RNA 2: B1 RNA 2 with A32U, A37G, G51U
B26: target 1 del2,del16 (mixed)
RNA 1: B1 RNA 1
RNA 2: GGGAAUGGAUCCACAUCUACGAAUUCGUACCAUAGGAGGUUAUCCGCUACCGAGAUCGGAAGAGCACACGU
B27: target 1 U8C,G15A (mixed)
RNA 1: B1 RNA 1
RNA 2: B1 RNA 2 with U44C, G51A
B28: target 1 insA 3' of 8,insC 3' of 8 (mixed)
RNA 1: B1 RNA 1
RNA 2: B6 RNA 2 with C44U, U45A, A46C

As a reminder, the Kd is the concentration at which binding is half-saturated. A lower Kd goes with a tighter complex.

This series has as its target T1, EsCas13d, nuclease-dead. As to the kind of experiment: crRNA (strand 1, pre-loaded); Mg2+; 40 mM Tris-HCl pH 7.5, 150 mM NaCl, 6 mM MgCl2, 1 mM DTT, 0.1% Tween-20, 0.2 mg/ml BSA; 25 C; 10 min per concentration, then washed. The following applies: tags: His6-TwinStrep-SUMO cleaved; N-terminal SNAP kept (SNAP-Surface 488); label: 3' end held by stalled T7 RNA polymerase.
Take B1: the Kd stood at 11.1 ± 0.5 nM.

In turn, B2 gave a Kd of 9.6 ± 0.5 nM. The Kd values of the last two molecules are within 1.5-fold of each other.

As to B3, the Kd was found to be 49 ± 11 nM.

B4 gave a Kd of approximately 38 nM.

Molecule B5 yielded a Kd of 54 ± 8 nM.

On to B6, for which binding was put at a Kd of 8.8 ± 0.5 nM.

The molecule B7 showed a Kd of 8.2 ± 0.8 nM.

In turn, B8 returned a Kd of 31.4 ± 2.8 nM.

The molecule B9 registered a Kd of 9.3 ± 0.5 nM.

B10 returned a Kd of 44 ± 5 nM.

As to B11, the Kd came to 30.5 ± 2.7 nM.

In the case of B12, the Kd turned out to be 24.6 ± 3.2 nM.

On to B13, for which binding was put at a Kd of 29.5 ± 3.5 nM.

In turn, B14 had a Kd of 15.1 ± 0.5 nM.

B15 had a Kd of 62 ± 11 nM. Against the preceding molecule, the Kd is about 4.1-fold higher.

B16 had a Kd of 12.5 ± 1 nM.

In turn, B17 registered a Kd of 25.5 ± 2.5 nM.

On to B18, for which the Kd came to 35 ± 5 nM.

B19 gave a Kd of 11.2 ± 0.7 nM. Compared with the last molecule, the Kd is about 3.1-fold lower.

The molecule B20 had a Kd of 27.6 ± 2.2 nM.

For the molecule B21, the Kd worked out at 4.27 ± 0.21 nM.

The molecule B22 returned a Kd of 24.3 ± 2 nM.

B23 yielded a Kd of 8.7 ± 0.7 nM.

Take B24: the Kd was found to be 9.7 ± 0.7 nM.

As for B25, binding was characterised by a dissociation constant (Kd) of 35.1 ± 1.9 nM.

As to B26, binding was put at a Kd of 82 ± 18 nM.

Take B27: binding was characterised by a dissociation constant (Kd) of 26.8 ± 2.1 nM.

For the molecule B28, the Kd came to 13.2 ± 0.6 nM.
